Results from US20260250737A1, “Engineered Luciferases and Luciferin Substrates” (Monod Bio, Inc., priority 2023, published 2026).

B1: MBIO-5335: LgLux_4039 variant S2C, R11L, V46I, E54D; SEQ ID NO 2797 (protein)
chain: MCEEQIRQNLLRFYEALDSGDAITAASLFDPGVTITLWDGTTFTSIEEFREWFDSQFSTSKDALREISSLEVRGDTVEVTVRLSFTRNGQKHTVDLLQLFKFV
B2: MBIO-5340: LgLux_4039 variant S2T, I6L, R11L, E48K; SEQ ID NO 2804 (protein)
chain: MTEEQLRQNLLRFYEALDSGDAITAASLFDPGVTITLWDGTTFTSVEKFREWFESQFSTSKDALREISSLEVRGDTVEVTVRLSFTRNGQKHTVDLLQLFKFV
B3: SEQ ID NO 2813: LgLux_4039 EP-PCR mutant T34I (protein)
chain: MSEEQIRQNLRRFYEALDSGDAITAASLFDPGVIITLWDGTTFTSVEEFREWFESQFSTSKDALREISSLEVRGDTVEVTVRLSFTRNGQKHTVDLLQLFKFV
B4: SEQ ID NO 2806: LgLux_4039 EP-PCR mutant N9S (protein)
chain: MSEEQIRQSLRRFYEALDSGDAITAASLFDPGVTITLWDGTTFTSVEEFREWFESQFSTSKDALREISSLEVRGDTVEVTVRLSFTRNGQKHTVDLLQLFKFV
B5: MBIO-5338: LgLux_4039 variant T41A, H92Q; SEQ ID NO 2800 (protein)
chain: MSEEQIRQNLRRFYEALDSGDAITAASLFDPGVTITLWDGATFTSVEEFREWFESQFSTSKDALREISSLEVRGDTVEVTVRLSFTRNGQKQTVDLLQLFKFV
B6: SEQ ID NO 2811: LgLux_4039 EP-PCR mutant N9I, N88D (protein)
chain: MSEEQIRQILRRFYEALDSGDAITAASLFDPGVTITLWDGTTFTSVEEFREWFESQFSTSKDALREISSLEVRGDTVEVTVRLSFTRDGQKHTVDLLQLFKFV
B7: SEQ ID NO 2807: LgLux_4039 EP-PCR mutant L99Q (protein)
chain: MSEEQIRQNLRRFYEALDSGDAITAASLFDPGVTITLWDGTTFTSVEEFREWFESQFSTSKDALREISSLEVRGDTVEVTVRLSFTRNGQKHTVDLLQQFKFV
B8: SEQ ID NO 2809: LgLux_4039 EP-PCR mutant N9D, V103I (protein)
chain: MSEEQIRQDLRRFYEALDSGDAITAASLFDPGVTITLWDGTTFTSVEEFREWFESQFSTSKDALREISSLEVRGDTVEVTVRLSFTRNGQKHTVDLLQLFKFI
B9: SEQ ID NO 2805: LgLux_4039 variant S19C (protein)
chain: MSEEQIRQNLRRFYEALDCGDAITAASLFDPGVTITLWDGTTFTSVEEFREWFESQFSTSKDALREISSLEVRGDTVEVTVRLSFTRNGQKHTVDLLQLFKFV
B10: MBIO-5342: LgLux_4039 variant E54G, S55T, R87S; SEQ ID NO 2802 (protein)
chain: MSEEQIRQNLRRFYEALDSGDAITAASLFDPGVTITLWDGTTFTSVEEFREWFGTQFSTSKDALREISSLEVRGDTVEVTVRLSFTSNGQKHTVDLLQLFKFV
B11: MBIO-5341: LgLux_4039 variant P31S; SEQ ID NO 2803 (protein)
chain: MSEEQIRQNLRRFYEALDSGDAITAASLFDSGVTITLWDGTTFTSVEEFREWFESQFSTSKDALREISSLEVRGDTVEVTVRLSFTRNGQKHTVDLLQLFKFV
B12: MBIO-5337: LgLux_4039 variant R11L, D30N; SEQ ID NO 2799 (protein)
chain: MSEEQIRQNLLRFYEALDSGDAITAASLFNPGVTITLWDGTTFTSVEEFREWFESQFSTSKDALREISSLEVRGDTVEVTVRLSFTRNGQKHTVDLLQLFKFV
B13: MBIO-5336: LgLux_4039 variant R11L; SEQ ID NO 2798 (protein)
chain: MSEEQIRQNLLRFYEALDSGDAITAASLFDPGVTITLWDGTTFTSVEEFREWFESQFSTSKDALREISSLEVRGDTVEVTVRLSFTRNGQKHTVDLLQLFKFV
B14: LgLux_4039: Large Lux fragment of MBIO-4039 (protein)
chain: MSEEQIRQNLRRFYEALDSGDAITAASLFDPGVTITLWDGTTFTSVEEFREWFESQFSTSKDALREISSLEVRGDTVEVTVRLSFTRNGQKHTVDLLQLFKFV
B15: SEQ ID NO 2812: LgLux_4039 EP-PCR mutant L64F (protein)
chain: MSEEQIRQNLRRFYEALDSGDAITAASLFDPGVTITLWDGTTFTSVEEFREWFESQFSTSKDAFREISSLEVRGDTVEVTVRLSFTRNGQKHTVDLLQLFKFV
B16: SEQ ID NO 2814: LgLux_4039 EP-PCR mutant E51V, K61T (protein)
chain: MSEEQIRQNLRRFYEALDSGDAITAASLFDPGVTITLWDGTTFTSVEEFRVWFESQFSTSTDALREISSLEVRGDTVEVTVRLSFTRNGQKHTVDLLQLFKFV
B17: SEQ ID NO 2810: LgLux_4039 EP-PCR mutant F43L (protein)
chain: MSEEQIRQNLRRFYEALDSGDAITAASLFDPGVTITLWDGTTLTSVEEFREWFESQFSTSKDALREISSLEVRGDTVEVTVRLSFTRNGQKHTVDLLQLFKFV
B18: SEQ ID NO 2808: LgLux_4039 EP-PCR mutant K101E (protein)
chain: MSEEQIRQNLRRFYEALDSGDAITAASLFDPGVTITLWDGTTFTSVEEFREWFESQFSTSKDALREISSLEVRGDTVEVTVRLSFTRNGQKHTVDLLQLFEFV
B19: MBIO-5339: LgLux_4039 variant R11L, I23V; SEQ ID NO 2801 (protein)
chain: MSEEQIRQNLLRFYEALDSGDAVTAASLFDPGVTITLWDGTTFTTVEEFREWFESQFSTSKDALREISSLEVRGDTVEVTVRLSFTRNGQKHTVDLLQLFKFV

Experiments:
Assay type in all cases: biochemical
[1] = test system: construct containing Small Lux (SmLux), Large Lux (LgLux), FKBP and FRB; assay: LuxSit split optimization: SmLux-LgLux-FKBP-FRB construct on the surface of yeast, rapamycin-induced signal; settings: Table 19, LgLux variants, 50 uM substrate 1c; for Fold change upon Rap addition: 20 uM Rapamycin
Procedure: To optimize the function of the LuxSit Splits, a construct containing Small Lux (SmLux), Large Lux (LgLux) and the proteins that bind the molecule Rapamycin (FKBP and FRB), connected by GS linkers, was expressed on the surface of yeast. When 50 uM of substrate 1c is added to yeast expressing this construct, a baseline signal is observed due to SmLux and LgLux reconstitution. When 20 uM of Rapamycin is added, SmLux and LgLux are brought closer to each other by FKBP and FRB, enhancing their reconstitution. As a result, an increase in signal is observed.
Libraries of SmLux and LgLux were assembled and tested independently to identify variants with lower baseline and higher fold change.

[2] = test system: SmLux; assay: LgLux stability optimization: error-prone PCR LgLux mutants on yeast, protease treatment, SmLux complementation; settings: Table 20, EP-PCR LgLux mutants on yeast, 50 uM substrate 1c; for Fold change upon SmLux peptide addition: 200 nM SmLux
Procedure: LgLux mutants were generated by error-prone PCR (EP-PCR) and treated with protease and their activity measured as depicted schematically in FIG. 44.
Yeast expressing a library of the LgLux mutants were incubated with proteases and screened to select variants that were stable enough to resist proteolysis. Functional variants were selected by adding 50 uM of substrate 1c and 200 nM of SmLux.
The nucleotide sequence encoding LgLux_4039 was subjected to EP-PCR to identify protease-stable mutants. The sequences (SEQ ID NOs: 2806-2814) and activity of the mutants are summarized below in Table 20.

[3] = test system: SmLux; assay: Computationally generated LgLux variants expressed in E. coli, tested in lysates with SmLux and substrate 1c
How it was run: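 Variants expressed in E. coli and screened as lysates, complemented with 20 uM SmLux and given 50 uM substrate 1c; luminescent activity measured.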

Molecule | Baseline Signal (Normalized by expression) [1] | Fold change upon Rap addition [1] | Baseline Signal (Normalized by expression) [2] | Fold change upon SmLux peptide addition [2] | other results
B1 | 23769.5 | 1.9 | – | – | –
B2 | 6666.1 | 2.2 | – | – | –
B3 | – | – | 241.6 | 52 | –
B4 | – | – | 973.7 | 126.7 | –
B5 | 18945.1 | 2.2 | – | – | –
B6 | – | – | 232.7 | 55.5 | –
B7 | – | – | 738.4 | 83.3 | –
B8 | – | – | 638.6 | 170 | –
B9 | 3667.6 | 2 | – | – | –
B10 | 3361.4 | 2 | – | – | –
B11 | 10433.7 | 2.2 | – | – | –
B12 | 14853.7 | 2.1 | – | – | –
B13 | 16379.8 | 2.1 | – | – | –
B14 | 22064.6 | 1.9 | 417.8 | 78.5 | Fold change upon SmLux peptide addition ([3]; 20 uM SmLux, 50 uM substrate 1c): 214.43; Baseline Signal (Normalized by expression) ([3]; 50 uM substrate 1c, before SmLux peptide addition): 299.2; Fold change upon SmLux peptide addition ([3]; Table 22, 20 uM SmLux, 50 uM substrate 1c): 360.49; Baseline Signal (Normalized by expression) ([3]; Table 22, 50 uM substrate 1c): 1766.6
B15 | – | – | 233.2 | 61.7 | –
B16 | – | – | 934.2 | 53.1 | –
B17 | – | – | 327.2 | 81.7 | –
B18 | – | – | 228.3 | 86.8 | –
B19 | 28286 | 1.9 | – | – | –
